Test system: SnaBI restriction endonuclease (R.SnaBI) (Sphaerotilus natans)
Assay: cleavage_in_vitro
Conditions: crude extract, 37 C, 15 min and 1 h; about 8x10^6

T7 phage DNA (SnaBI substrate)
activity (units/g wet cells): 8e+06

From US6025179
